Publication PMC4080824, “Altered native stability is the dominant basis for susceptibility of α1-antitrypsin mutants to polymerization” (Biochemical Journal, 2014)
Substitutions are numbered along the chain they refer to. Numbers in names are those of the source. One block for each molecule: values may come before it.

What was measured:
[1] = target: bovine α-chymotrypsin (bovine); assay: stoichiometry of inhibition by titration of enzyme activity; inhibitor incubated with 0.5 μM bovine α-chymotrypsin for 30 min at room temperature (21°C) in 20 mM Tris/HCl, 0.1 M NaCl, 0.1% PEG 8000, 10 mM CaCl2 pH 8.0; residual activity on N-succinyl-Ala-Ala-Pro-Phe-p-nitroanilide
[2] = target: bovine α-chymotrypsin (bovine); assay: stoichiometry of inhibition by titration of enzyme activity; as the stoichiometry of inhibition assay, protein treated with 100 mM 2-mercaptoethanol (reduced)
[3] = target: the molecule itself; assay: FRET or BRET; mutant series; 0.2 mg/ml protein, 4 μM Atto550–Ni-NTA and 4 μM Atto647N–Ni-NTA on the His6 tag, 10 mM NaH2PO4/Na2HPO4, 100 mM NaCl pH 7.4; heat-induced polymerization at 55°C; time to half-maximal signal
[4] = target: the molecule itself; assay: FRET or BRET; mutant series; 0.2 mg/ml protein, 4 μM Atto550–Ni-NTA and 4 μM Atto647N–Ni-NTA on the His6 tag, 10 mM NaH2PO4/Na2HPO4, 100 mM NaCl pH 7.4; heat-induced polymerization at 65°C; time to half-maximal signal
[5] = target: the molecule itself; assay: FRET or BRET; mutant series; 0.2 mg/ml protein, 4 μM Atto550–Ni-NTA and 4 μM Atto647N–Ni-NTA on the His6 tag, 10 mM NaH2PO4/Na2HPO4, 100 mM NaCl pH 7.4; heat-induced polymerization at 60°C; time to half-maximal signal

- SI (stoichiometry of inhibition) [1]: 1
- SI (stoichiometry of inhibition) [2]: 1
Molecule: α1-antitrypsin C232S S283C/P361C (283–361) (from UniProt P01009 26-418) (natural protein)

- SI (stoichiometry of inhibition) [1]: 8.5
Molecule: α1-antitrypsin C232S K168C/F189C (168–189) (from UniProt P01009 26-418) (natural protein)

- SI (stoichiometry of inhibition) [1]: 1.1
Molecule: α1-antitrypsin C232S (AT_(C232S)) (from UniProt P01009 26-418) (natural protein)

- SI (stoichiometry of inhibition) [1]: 1
Molecule: α1-antitrypsin C232S K335A (from UniProt P01009 26-418) (natural protein)

- SI (stoichiometry of inhibition) [1]: 1
- SI (stoichiometry of inhibition) [2]: 1
Molecule: α1-antitrypsin C232S E162C/V170C (162–170) (from UniProt P01009 26-418) (natural protein)

- SI (stoichiometry of inhibition) [1]: 3.9
Molecule: α1-antitrypsin C232S K331V (from UniProt P01009 26-418) (natural protein)

- SI (stoichiometry of inhibition) [1]: 1
- SI (stoichiometry of inhibition) [2]: 1
Molecule: α1-antitrypsin C232S S292C/T339C (292–339) (from UniProt P01009 26-418) (natural protein)

- SI (stoichiometry of inhibition) [2]: 1
Molecule: α1-antitrypsin C232S K191C/T339C (191–339) (from UniProt P01009 26-418) (natural protein)

B1: α1-antitrypsin C232S E162C/V170C (162–170) (natural protein)
chain: DPQGDAAQKTDTSHHDQDHPTFNKITPNLAEFAFSLYRQLAHQSNSTNIFFSPVSIATAFAMLSLGTKADTHDEILEGLNFNLTEIPEAQIHEGFQELLRTLNQPDSQLQLTTGNGLFLSEGLKLVDKFLEDVKKLYHSEAFTVNFGDTEEAKKQINDYVCKGTQGKICDLVKELDRDTVFALVNYIFFKGKWERPFEVKDTEEEDFHVDQVTTVKVPMMKRLGMFNIQHSKKLSSWVLLMKYLGNATAIFFLPDEGKLQHLENELTHDIITKFLENEDRRSASLHLPKLSITGTYDLKSVLGQLGITKVFSNGADLSGVTEEAPLKLSKAVHKAVLTIDEKGTEAAGAMFLEAIPMSIPPEVKFNKPFVFLMIEQNTKSPLFMGKVVNPTQK
modifications: disulfide bond between C162 and C170 (predominantly in the disulfide-bonded form, >90%); reduced where treated with 100 mM 2-mercaptoethanol
notes: α1-antitrypsin, wild-type (M) ORF on the C232S background; Same construct as m3 with the stated changes; source: E. coli SG13009/pREP4 (pQE-30) or BL21(DE3) (pQE-81L), purified; not shown: His6, N-terminal, kept
- polymerization half-time (t0.5) [3]: 3930 s
- polymerization half-time (t0.5) [4]: 226 s
- polymerization half-time (t0.5) [5]: 941 s

B2: α1-antitrypsin C232S K168C/F189C (168–189) (natural protein)
chain: B1 chain with C161E, K167C, C169V, F188C
modifications: disulfide bond between C168 and C189 (predominantly in the disulfide-bonded form, >90%); reduced where treated with 100 mM 2-mercaptoethanol
notes: as for B1
- polymerization half-time (t0.5) [3]: 21900 s
- polymerization half-time (t0.5) [4]: 1010 s
- polymerization half-time (t0.5) [5]: 8870 s

B3: α1-antitrypsin C232S S292C/T339C (292–339) (natural protein)
chain: B1 chain with C161E, C169V, S291C, T338C
modifications: disulfide bond between C292 and C339 (predominantly in the disulfide-bonded form, >90%); reduced where treated with 100 mM 2-mercaptoethanol
notes: as for B1
- polymerization half-time (t0.5) [3]: 2290 s
- polymerization half-time (t0.5) [4]: 51 s
- polymerization half-time (t0.5) [5]: 307 s

B4: α1-antitrypsin C232S S283C/P361C (283–361) (natural protein)
chain: B1 chain with C161E, C169V, S282C, P360C
modifications: disulfide bond between C283 and C361 (predominantly in the disulfide-bonded form, >90%); reduced where treated with 100 mM 2-mercaptoethanol
notes: as for B1
- polymerization half-time (t0.5) [3]: 8970 s
- polymerization half-time (t0.5) [4]: 37 s
- polymerization half-time (t0.5) [5]: 1430 s
